Results on one molecule are retold here after article PMC8492665, “An apple (Malus domestica) AP2/ERF transcription factor modulates carotenoid accumulation”.

The target in the data set is MdAP2-34 (Malus domestica, UniProt A0A678SKA5 1-366). The data set is described as follows: EMSA; LightShift Chemiluminescent EMSA Kit (Thermo Fisher); buffer, salt, pH and temperature not stated. To be noted: protein: recombinant; tags: GST (pGEX-4T-1, N-terminal); label: 5' biotin; blunt. For orientation: In EMSA bound probe runs differently from free probe, usually more slowly.
Sequence of MdAP2-34 (A0A678SKA5 entry or part of it): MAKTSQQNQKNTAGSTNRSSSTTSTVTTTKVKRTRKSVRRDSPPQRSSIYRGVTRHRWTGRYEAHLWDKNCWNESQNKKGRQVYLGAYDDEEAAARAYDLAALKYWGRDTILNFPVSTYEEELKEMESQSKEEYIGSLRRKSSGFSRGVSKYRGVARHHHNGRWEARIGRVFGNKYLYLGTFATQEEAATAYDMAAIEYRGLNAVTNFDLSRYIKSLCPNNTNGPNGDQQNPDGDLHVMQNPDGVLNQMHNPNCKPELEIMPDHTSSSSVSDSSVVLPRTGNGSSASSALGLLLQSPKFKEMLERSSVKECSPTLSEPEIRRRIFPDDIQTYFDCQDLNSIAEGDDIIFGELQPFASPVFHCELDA

B1: MdPSY2-1 promoter hot probe (dsDNA)
DNA 1: CTTTTCTTCTCTCAGTACATGCACCGACGTCGATATTAACCTTGGAACCT
DNA 2: AGGTTCCAAGGTTAATATCGACGTCGGTGCATGTACTGAGAGAAGAAAAG
As for B1, the binding result is on record as “binds”.
